Assay results taken from patent US6437095 (Hoffmann-La Roche, dated 2002).
Where no end group is shown, it is not given here.

Target: T1, polyionic peptide AlaCysLysLysLysLysLysLysLysLys (ACK8) (also: also used as mixed disulfide with glutathione on Cys (ACK8-SG))
T1 construct: Synthetic peptide (Fmoc); also called ACK8-SG (mixed disulfide with glutathione)
T1 peptide: ACKKKKKKKK
Test: 20 µM ACE8 with the mixed disulfide ACK8-SG, 0 to 1 M NaCl, cation exchange chromatography

ACEEEEEEEE (Synthetic peptide (Fmoc)) [polyionic peptide AlaCysGluGluGluGluGluGluGluGlu (ACE8)]
binding result: binds
